How the values were obtained:
mCCRL2 [1] = biological target: T1, mCCRL2 (Mus musculus, UniProt O35457); test: intracellular calcium mobilization, mCCRL2/L1.2 transfectants; assay type: cell-based; conditions: Fluo-4; CXCL12 acts via endogenous CXCR4
T1 construct: The coding regions of mCCRL2, huCCRL2, mCRTH2, and huCCR10 were amplified from genomic DNA; expressed in transfected cells
T1 sequence (O35457 1-360): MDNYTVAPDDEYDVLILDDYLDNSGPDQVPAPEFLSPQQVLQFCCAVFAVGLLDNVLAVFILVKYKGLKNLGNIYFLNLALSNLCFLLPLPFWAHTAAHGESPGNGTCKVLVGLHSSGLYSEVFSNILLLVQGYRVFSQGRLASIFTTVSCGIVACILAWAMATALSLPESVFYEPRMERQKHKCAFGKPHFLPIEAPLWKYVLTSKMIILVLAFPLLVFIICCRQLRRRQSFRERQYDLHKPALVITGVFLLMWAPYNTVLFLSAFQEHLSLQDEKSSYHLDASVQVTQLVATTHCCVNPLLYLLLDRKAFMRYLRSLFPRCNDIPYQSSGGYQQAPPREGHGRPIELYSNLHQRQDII
Protocol: (§1) Chemoattractant-stimulated Ca^2+-mobilization was performed following Alliance for Cell Signaling protocol ID PP00000210. Cells (3×10^6/mL) were loaded with 4 μM Fluo4-AM and 0.16% Pluronic acid F-127 (Molecular Probes) in modified Iscove's medium (Iscove's medium with 1% heat inactivated bovine calf serum and 2 mM L-glutamine, Invitrogen) for 30 minutes at 37° C. The samples were mixed every 10 minutes during loading, washed once, resuspended at up to 2×10^6/mL in the same buffer, and allowed to rest in the dark for 30 minutes at room temperature. Chemoattractant-stimulated change in Ca^2+-sensitive fluorescence of Fluo-4 was measured over real-time with a FACsScan flow cytometer and CellQuest software (BD Biosciences) at room temperature under constant stirring (500 rpm). Fluorescent data were acquired continuously up to 1024 seconds at 1-second intervals. The samples were analyzed for 45 seconds to establish basal state, removed from the nozzle to add the stimuli, and then returned to the nozzle. Mean channel fluorescence over time was analyzed with FlowJo (TreeStar, Ashland, Oreg., USA) software. […] 500 μl of these chemerin-loaded cells were added to mCMKLR1/L1.2 cells loaded with Fluo4-AM, and calcium mobilization was evaluated.

mCRTH2 = biological target: T2, mCRTH2 (Mus musculus, UniProt Q9Z2J6); test: radioligand binding to untransfected or mCRTH2-HA-transfected cells; conditions: data not shown
T2 construct: The coding regions of mCCRL2, huCCRL2, mCRTH2, and huCCR10 were amplified from genomic DNA; expressed in transfected cells
T2 sequence (Q9Z2J6 1-382): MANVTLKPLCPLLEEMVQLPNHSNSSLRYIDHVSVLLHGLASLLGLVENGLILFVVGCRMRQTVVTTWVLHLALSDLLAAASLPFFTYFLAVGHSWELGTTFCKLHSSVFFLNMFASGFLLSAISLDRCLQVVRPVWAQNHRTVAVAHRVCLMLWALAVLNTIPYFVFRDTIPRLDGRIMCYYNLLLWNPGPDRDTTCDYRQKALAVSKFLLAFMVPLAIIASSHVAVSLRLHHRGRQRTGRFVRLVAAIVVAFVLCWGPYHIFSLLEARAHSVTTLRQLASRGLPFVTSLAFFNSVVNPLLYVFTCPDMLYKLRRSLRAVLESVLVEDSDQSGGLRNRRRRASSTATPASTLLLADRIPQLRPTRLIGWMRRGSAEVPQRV

mCMKLR1 = biological target: T3, mCMKLR1 (Mus musculus, UniProt P97468); test: intracellular calcium mobilization, mCMKLR1 L1.2 transfectants; assay type: cell-based; conditions: Fluo-4
T3 construct: expressed in transfected cells; host or cells: L1.2 mouse pre-B lymphoma cells
T3 sequence (P97468 1-371): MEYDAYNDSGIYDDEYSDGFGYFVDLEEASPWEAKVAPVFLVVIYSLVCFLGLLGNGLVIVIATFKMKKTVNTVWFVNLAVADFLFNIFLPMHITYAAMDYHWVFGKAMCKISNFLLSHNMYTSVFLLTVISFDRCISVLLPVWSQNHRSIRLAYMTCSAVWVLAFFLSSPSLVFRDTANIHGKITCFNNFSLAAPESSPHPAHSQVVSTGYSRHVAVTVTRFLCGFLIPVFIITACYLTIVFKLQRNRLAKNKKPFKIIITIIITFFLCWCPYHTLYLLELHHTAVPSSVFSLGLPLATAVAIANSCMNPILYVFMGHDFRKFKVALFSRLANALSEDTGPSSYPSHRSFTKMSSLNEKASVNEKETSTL
Protocol: as §1

[2] = system: mouse peritoneal mast cells; test: immunofluorescence chemerin binding to peritoneal mast cells (WT or CCRL2 KO)
mCCRL2 [3] = biological target: T1, mCCRL2; test: in vitro transwell chemotaxis, mCCRL2/L1.2 transfectants; assay type: cell-based
Protocol: For migration experiments using cell lines, 2.5×10^5 cells/100 μl chemotaxis media (RPMI+10% fetal calf serum) were added to the top wells of 5-um pore transwell inserts (Costar, Corning, N.Y., USA), and test samples in 600 μl media were added to the bottom wells. After incubating the transwell plates for 1.5 hours at 37° C., the bottom wells were harvested and flow cytometry was used to assess migration. For primary cell chemotaxis, 1×10^6 cells/100 μl were added to the top well, and, following a 2 hour incubation at 37° C., polystyrene beads (15.0 μm diameter, Polysciences, Warrington, Pa., USA) were added to each well to facilitate normalization of the cell count. The cells were then stained for c-kit, F4/80, and/or CD11b expression and analyzed by flow cytometry. A ratio was generated and percent input migration was calculated.

huCCRL2 = biological target: T4, huCCRL2 (Homo sapiens, UniProt O00421); test: immunofluorescence-based chemerin-binding assay, huCCRL2-HA L1.2; conditions: read-out: EC50, untagged chemerin vs His8-tagged chemerin binding; 10 nM His8-tagged serum form chemerin, 30 min on ice, anti-His6 PE
T4 construct: The coding regions of mCCRL2, huCCRL2, mCRTH2, and huCCR10 were amplified from genomic DNA; expressed in transfected cells
T4 sequence (O00421 1-344): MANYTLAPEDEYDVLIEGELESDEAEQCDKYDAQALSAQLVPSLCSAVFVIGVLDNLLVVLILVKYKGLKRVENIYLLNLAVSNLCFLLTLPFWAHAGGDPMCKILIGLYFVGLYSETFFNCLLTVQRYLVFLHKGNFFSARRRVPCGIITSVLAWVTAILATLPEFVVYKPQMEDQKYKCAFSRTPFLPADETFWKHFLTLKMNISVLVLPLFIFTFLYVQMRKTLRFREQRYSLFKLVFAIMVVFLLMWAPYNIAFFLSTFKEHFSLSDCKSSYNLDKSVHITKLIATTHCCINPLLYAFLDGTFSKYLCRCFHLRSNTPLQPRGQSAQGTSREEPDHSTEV

In the case of “chemerin: protein ligand for signaling receptor CMKLR1; serum form human chemerin expressed in baculovirus-infected insect cells, His8-tag removed”, the intracellular calcium mobilization (mCCRL2 [1]) is reported as “failed to trigger”, the radiolabeled chemerin binding (mCRTH2) is reported as “no binding was detected” and the intracellular calcium mobilization (mCMKLR1) is reported as “robust calcium flux”. The “binding to freshly isolated peritoneal mast cells” value ([2]; WT mice) was “bound”, the “preference for binding of the pro-form vs. the active serum form” value ([2]; WT peritoneal mast cells) was “no obvious preference” and the “binding to peritoneal mast cells” value ([2]; mCCRL2 KO mice) was “did not bind”. The “synergy of CCL2 and chemerin in transwell migration” value (mCCRL2 [3]; CCL2 with chemerin) was “did not synergize”, the transwell migration (mCCRL2 [3]; range of doses, CXCL12 and CCL19 act via endogenous CXCR4 and CCR7) was “neither human nor mouse CCRL2-HA/L1.2 transfectants migrated” and the EC50 (huCCRL2) was 7 nM.
